Legend:
[1] = target: T1, human GPRC5D (human, UniProt Q9NZD1 1-345); experiment: flow cytometry, HEK293-hGPRC5D cells
T1 construct: Full length, on stably transfected cells (HEK293-hGPRC5D, CHO-hGPRC5D); Also used here for the endogenous GPRC5D of the GPRC5D+ myeloma lines MM.1R, MM.1S and NCI-H929; also called hGPRC5D; G-protein-coupled receptor family C group 5 member D
Experimental: Cell suspensions of HEK293-hGPRC5D and HEK293-hBCMA stably transfected cells in logarithmic growth phase were adjusted to 5×10⁵ cells/ml. Then, 100 μl/well of the cell suspension was added to a 96-well U-shaped plate, and centrifuged at 300 g for 5 min. The supernatant was discarded. 100 μL per well of serially diluted antibody was added, and incubated at 4° C. for 60 min. The secondary antibody 50 μL/well of Alexa Fluro647 labeled goat anti-human IgG Fc (1:300 dilution) was added, and incubated on ice for 20 min. After washing once, 50 μL/well of PI solution was added, incubated for 5 min, and detected by flow cytometry.

[2] = target: T2, CD3 receptor on the surface of Jurkat cells (human, UniProt P07766 23-207); experiment: flow cytometry on Jurkat cells
T2 construct: whole, on cells; Whole CD3/TCR complex on Jurkat cells; also called Jurkat T
Experimental: Jurkat cells in logarithmic growth phase were added with 200 μg/mL mouse IgG, and allowed to stand in an ice bath for 30 min. The cells were adjusted with 4% calf serum to 5×10⁵ cells/mL. 100 μL per well was added to a 96-well U-shaped plate, and centrifuged at 300 g. The supernatant was removed. 100 μL per well of serially diluted antibody was added, and incubated at 4° C. for 60 min. The secondary antibody 50 μL/well of Alexa Fluro647 labeled goat anti-human IgG Fc (1:300 dilution) was added, and incubated on ice for 20 min. After washing once, 50 μL/well of PI was added, incubated for 5 min, and detected by flow cytometry.

[3] = target: T1, human GPRC5D; experiment: cell-based or functional assay
[4] = target: T3, biotinylated CD3 recombinant antigen (CD3εγ) (Homo sapiens (Human), UniProt P07766 23-126; P09693 23-116, Biotinylated; site and chemistry not stated. The letters do not carry the biotin.); experiment: BLI, biotinylated antigen on SA probe, antibody as analyte
T3 construct: also called CD3e antigen; copies: 1 + 1
T3 sequence (P07766 23-126 limits assumed, chain 1 of 2): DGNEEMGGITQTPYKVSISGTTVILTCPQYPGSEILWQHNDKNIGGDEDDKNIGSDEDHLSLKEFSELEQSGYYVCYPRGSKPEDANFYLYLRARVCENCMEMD
T3 sequence (P09693 23-116 limits assumed, chain 2 of 2): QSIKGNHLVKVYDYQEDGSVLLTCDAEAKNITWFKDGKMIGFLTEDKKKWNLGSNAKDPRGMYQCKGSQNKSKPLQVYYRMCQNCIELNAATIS

T1 sequence (Q9NZD1 whole entry): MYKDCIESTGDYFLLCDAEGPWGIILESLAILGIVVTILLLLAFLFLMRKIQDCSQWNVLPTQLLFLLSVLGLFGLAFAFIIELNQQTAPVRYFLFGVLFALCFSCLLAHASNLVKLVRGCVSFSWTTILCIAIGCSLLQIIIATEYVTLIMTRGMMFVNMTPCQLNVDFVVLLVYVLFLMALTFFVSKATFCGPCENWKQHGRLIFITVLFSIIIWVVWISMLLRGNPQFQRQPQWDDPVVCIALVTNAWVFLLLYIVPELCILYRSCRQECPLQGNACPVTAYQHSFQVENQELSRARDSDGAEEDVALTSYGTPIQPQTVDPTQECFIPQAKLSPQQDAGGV
T2 sequence (P07766 23-207): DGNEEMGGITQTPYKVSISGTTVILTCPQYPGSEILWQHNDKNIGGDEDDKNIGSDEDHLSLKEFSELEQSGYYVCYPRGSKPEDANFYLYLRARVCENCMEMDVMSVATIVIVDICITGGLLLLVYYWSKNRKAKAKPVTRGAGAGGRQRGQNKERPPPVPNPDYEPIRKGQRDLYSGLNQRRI

| Binder | EC50 [1] | binding result [2] | TDCC EC50 (nM), HEK293-hGPRC5D [3] | Kd [4] |
| --- | --- | --- | --- | --- |
| GPRC5D × BCMA × CD3 triTCE-v1 trispecific antibody (other, Trispecific antibody: GPRC5D scFv fused to the N-terminus of the heavy chain of the BCMA arm) light 1: DIVLTQSPASLAVSPGQRATITCRASKSVSTSGYSYMHWYQKKPGQPPKLLIYLASNLESGVPARFSGSGSGTDFTLTINPVEAEDTANYYCQHSRELPWTFGQGTKVEIKRTVAAPSVFIFPPSDEQLKSGTASVVCLLNNFYPREAKVQWKVDNALQSGNSQESVTEQDSKDSTYSLSSTLTLSKADYEKHKVYACEVTHQGLSSPVTKSFNRGEC heavy 1: DIQMTQSPSSLSASVGDRVTITCQASQNVGTNVAWYQQKPGQAPKALIYSASYLNSGVPSRFSGSGSGTDFTFTISSLQPEDIATYFCQQYNSYLLTFGCGTKVEIKGGGGSGGGGSGGGGSQVQLVQSGAEVKKPGSSVKVSCKASGYSFTGYTMNWVRQAPGQCLEWMGLINPYNGGTRYNQKFQGRVTITADESTSTAYMELSSLRSEDTAVYYCARWALRYGMDYWGQGTLVTVSSGGGGSGGGGSGGGGSQVQLVQSGSELKKPGASVKVSCKASGYIFTNFGMNWVREAPGQGLEWMGWINTYTGEQIYADGFTGRFVFSLDTSVSTAYLQISSLKAEDTAVYFCARGEIYYGYDVGFVYWGQGTLVTVSSASTKGPSVFPLAPCSRSTSESTAALGCLVKDYFPEPVTVSWNSGALTSGVHTFPAVLQSSGLYSLSSVVTVPSSSLGTKTYTCNVDHKPSNTKVDKRVESKYGPPCPPCPAPEFEGGPSVFLFPPKPKDTLMISRTPEVTCVVVDVSQEDPEVQFNWYVDGVEVHNAKTKPREEQFNSTYRVVSVLTVLHQDWLNGKEYKCKVSNKGLASSIEKTISKAKGQPREPQVCTLPPSQEEMTKNQVSLSCAVKGFYPSDIAVEWESNGQPENNYKTTPPVLDSDGSFFLVSKLTVDKSRWQEGNVFSCSVMHEALHNHYTQKSLSLSLGK light 2: QAVVTQEPSLTVSPGGTVTLTCRSSTGAVTTSNYANWVQEKPGQAPRGLIGGTNKRAPWTPARFSGSLLGGKAALTITGAQAEDEAEYYCVLWYSNLWVFGGGTKLTVLGQPKAAPSVTLFPPSSEELQANKATLVCLISDFYPGAVTVAWKADSSPVKAGVETTTPSKQSNNKYAASSYLSLTPEQWKSHRSYSCQVTHEGSTVEKTVAPTECS heavy 2: EVQLVESGGGLVQPGGSLRLSCAASGFTFNTYAMNWVRKAPGKGLEWVGRIRSKYNNYATYYADSVKDRFTISRDDSKNSLYLQMNSLKTEDTAVYYCVRHGNFGNSYVSWFAYWGQGTLVTVSSASTKGPSVFPLAPCSRSTSESTAALGCLVKDYFPEPVTVSWNSGALTSGVHTFPAVLQSSGLYSLSSVVTVPSSSLGTKTYTCNVDHKPSNTKVDKRVESKYGPPCPPCPAPEFEGGPSVFLFPPKPKDTLMISRTPEVTCVVVDVSQEDPEVQFNWYVDGVEVHNAKTKPREEQFNSTYRVVSVLTVLHQDWLNGKEYKCKVSNKGLASSIEKTISKAKGQPREPQVYTLPPCQEEMTKNQVSLWCLVKGFYPSDIAVEWESNGQPENNYKTTPPVLDSDGSFFLYSKLTVDKSRWQEGNVFSCSVMHEALHNHYTQKSLSLSLGK | 5.7 nM | binds | 0.074 nM |  |
| GPRC5D × BCMA × CD3 triTCE-v2 trispecific antibody (other, Trispecific antibody: GPRC5D scFv fused to the N-terminus of the heavy chain of the BCMA arm) light 1: DIVLTQSPASLAVSPGQRATITCRASKSVSTSGYSYMHWYQKKPGQPPKLLIYLASNLESGVPARFSGSGSGTDFTLTINPVEAEDTANYYCQHSRELPWTFGQGTKVEIKRTVAAPSVFIFPPSDEQLKSGTASVVCLLNNFYPREAKVQWKVDNALQSGNSQESVTEQDSKDSTYSLSSTLTLSKADYEKHKVYACEVTHQGLSSPVTKSFNRGEC heavy 1: QVQLVQSGAEVKKPGSSVKVSCKASGYSFTGYTMNWVRQAPGQCLEWMGLINPYNGGTRYNQKFQGRVTITADESTSTAYMELSSLRSEDTAVYYCARWALRYGMDYWGQGTLVTVSSGGGGSGGGGSGGGGSDIQMTQSPSSLSASVGDRVTITCQASQNVGTNVAWYQQKPGQAPKALIYSASYLNSGVPSRFSGSGSGTDFTFTISSLQPEDIATYFCQQYNSYLLTFGCGTKVEIKGGGGSGGGGSGGGGSQVQLVQSGSELKKPGASVKVSCKASGYIFTNFGMNWVREAPGQGLEWMGWINTYTGEQIYADGFTGRFVFSLDTSVSTAYLQISSLKAEDTAVYFCARGEIYYGYDVGFVYWGQGTLVTVSSASTKGPSVFPLAPCSRSTSESTAALGCLVKDYFPEPVTVSWNSGALTSGVHTFPAVLQSSGLYSLSSVVTVPSSSLGTKTYTCNVDHKPSNTKVDKRVESKYGPPCPPCPAPEFEGGPSVFLFPPKPKDTLMISRTPEVTCVVVDVSQEDPEVQFNWYVDGVEVHNAKTKPREEQFNSTYRVVSVLTVLHQDWLNGKEYKCKVSNKGLASSIEKTISKAKGQPREPQVCTLPPSQEEMTKNQVSLSCAVKGFYPSDIAVEWESNGQPENNYKTTPPVLDSDGSFFLVSKLTVDKSRWQEGNVFSCSVMHEALHNHYTQKSLSLSLGK light 2: QAVVTQEPSLTVSPGGTVTLTCRSSTGAVTTSNYANWVQEKPGQAPRGLIGGTNKRAPWTPARFSGSLLGGKAALTITGAQAEDEAEYYCVLWYSNLWVFGGGTKLTVLGQPKAAPSVTLFPPSSEELQANKATLVCLISDFYPGAVTVAWKADSSPVKAGVETTTPSKQSNNKYAASSYLSLTPEQWKSHRSYSCQVTHEGSTVEKTVAPTECS heavy 2: EVQLVESGGGLVQPGGSLRLSCAASGFTFNTYAMNWVRKAPGKGLEWVGRIRSKYNNYATYYADSVKDRFTISRDDSKNSLYLQMNSLKTEDTAVYYCVRHGNFGNSYVSWFAYWGQGTLVTVSSASTKGPSVFPLAPCSRSTSESTAALGCLVKDYFPEPVTVSWNSGALTSGVHTFPAVLQSSGLYSLSSVVTVPSSSLGTKTYTCNVDHKPSNTKVDKRVESKYGPPCPPCPAPEFEGGPSVFLFPPKPKDTLMISRTPEVTCVVVDVSQEDPEVQFNWYVDGVEVHNAKTKPREEQFNSTYRVVSVLTVLHQDWLNGKEYKCKVSNKGLASSIEKTISKAKGQPREPQVYTLPPCQEEMTKNQVSLWCLVKGFYPSDIAVEWESNGQPENNYKTTPPVLDSDGSFFLYSKLTVDKSRWQEGNVFSCSVMHEALHNHYTQKSLSLSLGK | 7.9 nM | binds | 0.045 nM |  |
| GPRC5D × BCMA × CD3 triTCE-v3 trispecific antibody (other, Trispecific antibody: GPRC5D scFv fused to the N-terminus of the heavy chain of the CD3 arm) light 1: QAVVTQEPSLTVSPGGTVTLTCRSSTGAVTTSNYANWVQEKPGQAPRGLIGGTNKRAPWTPARFSGSLLGGKAALTITGAQAEDEAEYYCVLWYSNLWVFGGGTKLTVLGQPKAAPSVTLFPPSSEELQANKATLVCLISDFYPGAVTVAWKADSSPVKAGVETTTPSKQSNNKYAASSYLSLTPEQWKSHRSYSCQVTHEGSTVEKTVAPTECS heavy 1: DIQMTQSPSSLSASVGDRVTITCQASQNVGTNVAWYQQKPGQAPKALIYSASYLNSGVPSRFSGSGSGTDFTFTISSLQPEDIATYFCQQYNSYLLTFGCGTKVEIKGGGGSGGGGSGGGGSQVQLVQSGAEVKKPGSSVKVSCKASGYSFTGYTMNWVRQAPGQCLEWMGLINPYNGGTRYNQKFQGRVTITADESTSTAYMELSSLRSEDTAVYYCARWALRYGMDYWGQGTLVTVSSGGGGSGGGGSGGGGSEVQLVESGGGLVQPGGSLRLSCAASGFTFNTYAMNWVRKAPGKGLEWVGRIRSKYNNYATYYADSVKDRFTISRDDSKNSLYLQMNSLKTEDTAVYYCVRHGNFGNSYVSWFAYWGQGTLVTVSSASTKGPSVFPLAPCSRSTSESTAALGCLVKDYFPEPVTVSWNSGALTSGVHTFPAVLQSSGLYSLSSVVTVPSSSLGTKTYTCNVDHKPSNTKVDKRVESKYGPPCPPCPAPEFEGGPSVFLFPPKPKDTLMISRTPEVTCVVVDVSQEDPEVQFNWYVDGVEVHNAKTKPREEQFNSTYRVVSVLTVLHQDWLNGKEYKCKVSNKGLASSIEKTISKAKGQPREPQVYTLPPCQEEMTKNQVSLWCLVKGFYPSDIAVEWESNGQPENNYKTTPPVLDSDGSFFLYSKLTVDKSRWQEGNVFSCSVMHEALHNHYTQKSLSLSLGK light 2: DIVLTQSPASLAVSPGQRATITCRASKSVSTSGYSYMHWYQKKPGQPPKLLIYLASNLESGVPARFSGSGSGTDFTLTINPVEAEDTANYYCQHSRELPWTFGQGTKVEIKRTVAAPSVFIFPPSDEQLKSGTASVVCLLNNFYPREAKVQWKVDNALQSGNSQESVTEQDSKDSTYSLSSTLTLSKADYEKHKVYACEVTHQGLSSPVTKSFNRGEC heavy 2: QVQLVQSGSELKKPGASVKVSCKASGYIFTNFGMNWVREAPGQGLEWMGWINTYTGEQIYADGFTGRFVFSLDTSVSTAYLQISSLKAEDTAVYFCARGEIYYGYDVGFVYWGQGTLVTVSS | 2.7 nM |  | 0.278 nM | 58.2 nM |
| GPRC5D × BCMA × CD3 triTCE-v4 trispecific antibody (other, Trispecific antibody: GPRC5D scFv fused to the N-terminus of the heavy chain of the CD3 arm) light 1: QAVVTQEPSLTVSPGGTVTLTCRSSTGAVTTSNYANWVQEKPGQAPRGLIGGTNKRAPWTPARFSGSLLGGKAALTITGAQAEDEAEYYCVLWYSNLWVFGGGTKLTVLGQPKAAPSVTLFPPSSEELQANKATLVCLISDFYPGAVTVAWKADSSPVKAGVETTTPSKQSNNKYAASSYLSLTPEQWKSHRSYSCQVTHEGSTVEKTVAPTECS heavy 1: QVQLVQSGAEVKKPGSSVKVSCKASGYSFTGYTMNWVRQAPGQCLEWMGLINPYNGGTRYNQKFQGRVTITADESTSTAYMELSSLRSEDTAVYYCARWALRYGMDYWGQGTLVTVSSGGGGSGGGGSGGGGSDIQMTQSPSSLSASVGDRVTITCQASQNVGTNVAWYQQKPGQAPKALIYSASYLNSGVPSRFSGSGSGTDFTFTISSLQPEDIATYFCQQYNSYLLTFGCGTKVEIKGGGGSGGGGSGGGGSEVQLVESGGGLVQPGGSLRLSCAASGFTFNTYAMNWVRKAPGKGLEWVGRIRSKYNNYATYYADSVKDRFTISRDDSKNSLYLQMNSLKTEDTAVYYCVRHGNFGNSYVSWFAYWGQGTLVTVSSASTKGPSVFPLAPCSRSTSESTAALGCLVKDYFPEPVTVSWNSGALTSGVHTFPAVLQSSGLYSLSSVVTVPSSSLGTKTYTCNVDHKPSNTKVDKRVESKYGPPCPPCPAPEFEGGPSVFLFPPKPKDTLMISRTPEVTCVVVDVSQEDPEVQFNWYVDGVEVHNAKTKPREEQFNSTYRVVSVLTVLHQDWLNGKEYKCKVSNKGLASSIEKTISKAKGQPREPQVYTLPPCQEEMTKNQVSLWCLVKGFYPSDIAVEWESNGQPENNYKTTPPVLDSDGSFFLYSKLTVDKSRWQEGNVFSCSVMHEALHNHYTQKSLSLSLGK light 2: DIVLTQSPASLAVSPGQRATITCRASKSVSTSGYSYMHWYQKKPGQPPKLLIYLASNLESGVPARFSGSGSGTDFTLTINPVEAEDTANYYCQHSRELPWTFGQGTKVEIKRTVAAPSVFIFPPSDEQLKSGTASVVCLLNNFYPREAKVQWKVDNALQSGNSQESVTEQDSKDSTYSLSSTLTLSKADYEKHKVYACEVTHQGLSSPVTKSFNRGEC heavy 2: QVQLVQSGSELKKPGASVKVSCKASGYIFTNFGMNWVREAPGQGLEWMGWINTYTGEQIYADGFTGRFVFSLDTSVSTAYLQISSLKAEDTAVYFCARGEIYYGYDVGFVYWGQGTLVTVSS | 9.9 nM |  | 0.446 nM | 64.4 nM |

Reference: patent US20260116966A1 (KEYMED BIOSCIENCES CHENGDU, published 2026)
